According to PMC8376870, “Auto-inhibitory intramolecular S5/S6 interaction in the TRPV6 channel regulates breast cancer cell migration and invasion” (Communications Biology, 2021):

Target: T1, GST-G511-V540 (TRPV6 S5 fragment) (human, UniProt Q9H1D0 511-540)
T1 construct: also called S5 (G511-V540); source: E. coli, purified (GST beads)
Assay: pull-down; purified His- or GST-tagged peptides from E. coli incubated together overnight at 4 °C, 50% beads (GST or Ni-NTA) added, washed with 1% NP-40, western blot
Settings: both partners purified

T1 sequence (Q9H1D0 511-540): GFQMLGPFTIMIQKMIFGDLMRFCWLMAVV

binding result: binds
B1: His-MBP-A603-L632 (TRPV6 S6 fragment) (domain or fragment)
chain: not shown
notes: also called S6 (A603-L632); source: E. coli, purified (Ni-NTA beads)
